According to patent US20150239980A1 (NEOTOPE BOSCIENCES, published 2015):

Columns and labels:
recombinant hMCAM-His [1] = biological target: T1, recombinant hMCAM-His (human, UniProt P43121 24-559); assay: ForteBio Octet Red, hMCAM-His analyte; Forte column 1; vs rodent 1749
T1 construct: not shown: His tag
T1 chain: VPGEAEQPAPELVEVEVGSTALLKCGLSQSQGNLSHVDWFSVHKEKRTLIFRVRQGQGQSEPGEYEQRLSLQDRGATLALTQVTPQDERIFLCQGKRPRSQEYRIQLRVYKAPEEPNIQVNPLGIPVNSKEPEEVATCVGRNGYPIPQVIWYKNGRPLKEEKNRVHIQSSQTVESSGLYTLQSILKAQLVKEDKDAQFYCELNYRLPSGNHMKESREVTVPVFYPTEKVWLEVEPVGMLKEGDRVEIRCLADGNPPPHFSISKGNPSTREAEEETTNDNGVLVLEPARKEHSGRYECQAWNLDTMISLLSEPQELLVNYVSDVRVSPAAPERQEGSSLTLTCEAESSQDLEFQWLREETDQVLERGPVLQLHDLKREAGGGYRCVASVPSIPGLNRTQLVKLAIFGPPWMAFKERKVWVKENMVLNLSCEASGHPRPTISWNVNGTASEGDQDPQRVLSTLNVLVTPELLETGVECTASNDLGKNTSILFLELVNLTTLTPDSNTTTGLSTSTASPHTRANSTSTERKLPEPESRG
In short: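 Humanized antibodies were captured on anti-human Fc sensors, then exposed to several concentrations of hMCAMHis analyte; affinity was derived by a 1:1 fitting model.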

recombinant hMCAM-His [2] = biological target: T1, recombinant hMCAM-His; assay: ForteBio Octet Red, hMCAM-His analyte; Expt. #1; vs rodent 1749
Procedure: The affinities were measured using the ForteBio Octet Red. Anti-human Fc sensors were used to capture the humanized antibodies, and several concentrations of hMCAMHis analyte were used to determine the affinity using a 1:1 fitting model.

[3] = biological target: T2, human MCAM (melanoma cell adhesion molecule) expressed on transfected CHO cells (human, UniProt P43121 24-646); assay: flow cytometry, human MCAM CHO cells preincubated with antibody, competitor recombinant human laminin 411 at 20 ug/ml
T2 construct: also called hMCAM; CD146
T2 chain: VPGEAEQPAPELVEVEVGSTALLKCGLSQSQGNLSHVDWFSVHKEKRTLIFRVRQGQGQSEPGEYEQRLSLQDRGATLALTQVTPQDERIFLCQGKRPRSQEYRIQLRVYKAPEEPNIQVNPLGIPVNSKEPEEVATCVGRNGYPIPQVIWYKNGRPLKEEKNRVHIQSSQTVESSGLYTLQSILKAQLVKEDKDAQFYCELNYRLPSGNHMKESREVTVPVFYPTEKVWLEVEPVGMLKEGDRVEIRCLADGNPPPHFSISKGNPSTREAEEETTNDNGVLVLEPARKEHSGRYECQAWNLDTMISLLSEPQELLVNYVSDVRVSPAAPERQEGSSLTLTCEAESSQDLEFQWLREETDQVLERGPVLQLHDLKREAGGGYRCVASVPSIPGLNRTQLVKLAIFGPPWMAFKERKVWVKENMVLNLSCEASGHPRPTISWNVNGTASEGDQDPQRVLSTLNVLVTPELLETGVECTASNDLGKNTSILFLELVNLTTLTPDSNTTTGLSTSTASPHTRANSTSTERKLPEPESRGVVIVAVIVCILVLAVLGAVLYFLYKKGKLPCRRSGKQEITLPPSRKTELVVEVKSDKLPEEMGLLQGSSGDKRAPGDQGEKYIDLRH
Procedure: The 87 independent mouse fusion clones and 26 independent rat fusion clones described in Example 10 above as being capable of (i) binding to human MCAM, and (ii) blocking the interaction between human MCAM and the α-4 chain of laminin were further characterized as follows. First, IC50 quantitation for the ability of the monoclonal antibody to block the binding of human MCAM to the α-4 chain of laminin was determined as follows. CHO cells expressing human MCAM were incubated with an anti-human MCAM antibody (at various concentrations) for 30 minutes at 4 degrees Celsius. […] Unbound laminin was then washed away, and the laminin bound to the surface of the cells was detected with fluorescently labeled anti-laminin antibodies. After washing, the amount of laminin bound to the surface was detected by flow cytometry, and IC50s were calculated based on the mean fluorescent intensity.
These six anti-MCAM monoclonal antibody clones are herein referred to as (i) the mouse anti-human MCAM monoclonal clones 1174.1.3, 1414.1.2, 1415.1.1, and 1749.1.3, and (ii) the rat anti-human MCAM monoclonal antibody clones 2120.4.19 and 2107.4.10. […] As such, each of these specific monoclonal antibodies was very capable of binding to human MCAM and inhibiting the interaction of cell-expressed human MCAM with its α-4 laminin binding ligand.

recombinant hMCAM-His [4] = biological target: T1, recombinant hMCAM-His; assay: competitive ELISA on hMCAM-His, competitor biotinylated rodent or chimeric 1749; Expt. #1; vs rodent 1749
Procedure: ELISA plates were coated with recombinant hMCAM-His, and blocked with casein buffer to prevent non-specific binding. Biotinylated rodent or chimeric antibody was added at a subsaturating concentration, in the presence or absence of 3× increasing concentrations of unlabeled competitor (humanized antibody, rodent, or chimeric). After washing to remove unbound antibody, streptavidin HRP was added to allow detection of the biotinylated antibody. The ELISA was developed with TMB substrate and the OD450 was measured. The IC50 of the unlabeled competitor was determined using the GraphPad Prism5 software.

[5] = biological target: T3, Recombinant human Fc-tagged MCAM IgG1-2A (human MCAM domains 1 and 2, amino acids 19-242) (human, UniProt P43121 19-242); assay: ForteBio domain mapping as in Example 8
T3 construct: also called human MCAM IgG1-2A; MCAM Fc domains 1 and 2; not shown: human Fc tag
T3 sequence: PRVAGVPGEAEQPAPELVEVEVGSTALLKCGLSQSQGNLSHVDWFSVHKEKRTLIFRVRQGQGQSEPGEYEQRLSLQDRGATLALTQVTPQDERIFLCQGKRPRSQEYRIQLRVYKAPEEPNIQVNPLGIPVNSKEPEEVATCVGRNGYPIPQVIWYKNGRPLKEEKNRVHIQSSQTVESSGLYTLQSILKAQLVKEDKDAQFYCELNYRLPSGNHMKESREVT

[6] = biological target: T2, human MCAM (melanoma cell adhesion …); assay: laminin/FACS on hMCAM CHO cells, competitor laminin 411; Expt#2; vs rodent 1749
In short: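 After a 30-45 minute incubation, cells were washed and bound laminin was detected with AF650-conjugated anti-laminin antibody. Laminin binding signal was measured by flow cytometry.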

B1: mouse anti-human MCAM monoclonal antibody clone 1749.1.3 (antibody, V domains shown)
VH: DVKLVESGGDLVKPGGSLKLSCAASGFTFSSYIMSWVRQTPEKRLEWVATISSGGSSTYYPDSVKGRFTISRDNAKNTLYLQMSSLKSEDTAMYYCTRDDDYDVKVFAYWGQGTLVTVSA
VL: DIVMSQSPSSLAVSAGEKVTMNCKSSRSLLNSRIRKNYLAWYQQKPGQSPKLLIYWASTRESGVPDRFTGSGSGTDFTLTISSVQAEDLAVYYCKQSYNLLTFGAGTKLELK
notes: mouse hybridoma antibody; also called rodent 1749; murine 1749.1.3 anti-MCAM antibody
With B1 the “fold over rodent (Forte affinity)” value (recombinant hMCAM-His [1]) was 1 fold, the “fold over rodent (Forte affinity)” value (recombinant hMCAM-His [2]) was 1 fold and the IC50 [3] was 0.545 µg/mL. The “fold over rodent (competitive ELISA)” value (recombinant hMCAM-His [4]) was 1 fold, the binding result [5] was “no binding” and the “fold over rodent (blocking, laminin/FACS)” value [6] was 1 fold.
